“And” between values parts separate entries of the source, which are not always exact repeats. Identical values can stand only once.
How the values were obtained:
[1] = biological target: T1, human OX40 expressed on cells (human, UniProt P43489 29-277); experiment: flow cytometry, activated human CD4+ T cells, with 2 µg/mL sOX40L, n=3
T1 construct: also called CD134; TNFRSF4
T1 sequence: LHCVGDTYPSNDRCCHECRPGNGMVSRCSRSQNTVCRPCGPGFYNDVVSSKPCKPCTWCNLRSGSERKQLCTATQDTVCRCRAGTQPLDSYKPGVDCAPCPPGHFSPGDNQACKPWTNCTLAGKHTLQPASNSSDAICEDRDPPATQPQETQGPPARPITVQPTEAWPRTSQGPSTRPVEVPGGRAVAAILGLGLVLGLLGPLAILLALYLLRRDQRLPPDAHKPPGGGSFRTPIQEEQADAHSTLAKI
Procedure: (§1) Stimulated PBMCs were pelleted, resuspended in FACS buffer 2 (DPBS with 2% heat-inactivated FBS [Sigma-Aldrich, cat. no. F7524] and 2 mM EDTA [Sigma-Aldrich, cat. no. 03690]), and seeded (100,000 cells/well) in round-bottom 96-well plates (VWR International GmbH, cat. no. 734-197). […] Next, cells were washed twice in FACS buffer, and incubated with 30 μL of the antibody panel described in Table 11 diluted in FACS buffer 2 containing 1:1,500 Fixable Viability Stain eFluor 780 at 4° C. for 20 min, protected from light. The cells were subsequently washed twice with 120-150 μL FACS buffer 2 and measured on a BD FACSCelesta flow cytometer using a BD High Throughput sampler and subsequent analysis was done using FlowJo software.

[2] = biological target: T1, human OX40 expressed on cells; experiment: flow cytometry, activated human CD8+ T cells, mean of 3 donors; CD8+ T cells
Procedure: (§2) Healthy human donor PBMCs were purified essentially as described in Example 7. The cell concentration was adjusted to 2×10⁶ cells per mL (final concentration) in assay medium and plated in 6-well plates (Greiner, cat. no. 657160). PBMCs were stimulated with 0.3 μg/mL anti-CD3 ([…] Technologies, cat. no. 60011) and 0.5 μg/mL anti-CD28 antibodies (BioLegend, cat. no. 302934) and cultured for two days at 37° C., 5% CO₂. Next, the PBMCs were harvested, counted and brought to a concentration of 2×10⁶ cells per mL in FACS buffer 1 (DPBS with 2% heat-inactivated FBS and 2 mM ethylenediaminetetraacetic acid [EDTA]). […] After 60 min at RT, the cells were prepared for flow cytometric analyses. To this end, the cells were washed twice with 150 μL FACS buffer 1 and 30 μL/well cell-surface antibody mix (Table 9) in FACS buffer 1 containing antibody against human Fcγ antibody (Table 9) and fixable viability dye eFluor780 (1:1,500) was added. The staining procedures were carried out at 4° C. for 15-20 min protected from light. Stained cells were washed twice with 120-150 μL FACS buffer 1 (5 min, 460×g, RT) and resuspended in 60-100 μL FACS buffer 1 for direct flow cytometric analyses. Flow cytometric data were acquired on a FACSymphony A3 and analyzed with FlowJo software.

[3] = biological target: T1, human OX40 expressed on cells; experiment: flow cytometry, loss of sOX40L (2 µg/mL) binding to activated human CD8+ T cells; competitor sOX40L
Procedure: as §1

[4] = biological target: T1, human OX40 expressed on cells; experiment: flow cytometry, activated human CD4+ T cells, mean of 3 donors; CD4+ T cells
[5] = biological target: T1, human OX40 expressed on cells; experiment: flow cytometry, loss of sOX40L (2 µg/mL) binding to activated human CD8+ T cells; competitor sOX40L; unit taken from the upper half of the table
Procedure: as §1

[6] = biological target: T1, human OX40 expressed on cells; experiment: flow cytometry, activated human CD8+ T cells, without sOX40L, n=3
Procedure: as §1

[7] = biological target: T1, human OX40 expressed on cells; experiment: flow cytometry, loss of sOX40L (2 µg/mL) binding to activated human CD4+ T cells; competitor sOX40L
Procedure: as §1

[8] = biological target: T1, human OX40 expressed on cells; experiment: flow cytometry, activated human CD8+ T cells, donor 2
Procedure: as §2

[9] = biological target: T1, human OX40 expressed on cells; experiment: cell-based or functional assay
[10] = biological target: T1, human OX40 expressed on cells; experiment: flow cytometry, activated human CD8+ T cells, mean of 3 donors
Procedure: as §2

[11] = biological target: T1, human OX40 expressed on cells; experiment: flow cytometry, activated human CD4+ and CD8+ T cells, 2 µg/mL sOX40L
Procedure: as §1

B1: IgG1-CD134-003-HC6LC2-P329R-E345R (antibody)
heavy: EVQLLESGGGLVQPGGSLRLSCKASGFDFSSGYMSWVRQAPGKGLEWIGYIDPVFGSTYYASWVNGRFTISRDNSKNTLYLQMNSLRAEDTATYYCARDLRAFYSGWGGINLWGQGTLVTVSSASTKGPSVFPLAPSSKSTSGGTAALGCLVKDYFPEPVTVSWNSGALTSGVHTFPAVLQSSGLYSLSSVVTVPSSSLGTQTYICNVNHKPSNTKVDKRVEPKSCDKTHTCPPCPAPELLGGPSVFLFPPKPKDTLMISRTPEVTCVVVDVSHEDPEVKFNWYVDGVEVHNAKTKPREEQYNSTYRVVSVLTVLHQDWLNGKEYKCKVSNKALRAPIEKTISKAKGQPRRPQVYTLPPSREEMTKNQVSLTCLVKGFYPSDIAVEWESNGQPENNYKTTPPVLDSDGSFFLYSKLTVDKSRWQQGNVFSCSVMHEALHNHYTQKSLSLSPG
light: AAVLTQSPSSLSASVGDRVTITCQSSQIVVNNNFLSWYQQKPGKAPKLLIYDASNLASGVPDRFSGSGSGTDFTFTISSLQPEDIATYYCLGGYDDDAENAFGGGTKVEIKRTVAAPSVFIFPPSDEQLKSGTASVVCLLNNFYPREAKVQWKVDNALQSGNSQESVTEQDSKDSTYSLSSTLTLSKADYEKHKVYACEVTHQGLSSPVTKSFNRGEC
notes: humanized; human IgG1 with P329R and E345R (Eu numbering), kappa; also called IgG1-CD134-003-HC6LC2-RR
- EC50 [1]: 0.054 µg/mL and 0.359 nM
- EC50 [2]: 0.159 nM
- IC50 [3]: 0.084 µg/mL
- EC50 [4]: 0.14 nM
- IC50 [5]: 0.561 nM
- EC50 [6]: 0.017 µg/mL and 0.114 nM
- IC50 [7]: 0.086 µg/mL
- EC50 [8]: 0.0163 µg/mL
- Average EC50 CD4+ T-cell proliferation (17 donors) [9]: 0.013 µg/ml and 0.085 nM
- Average EC50 CD8+ T-cell proliferation (17 donors) [9]: 0.017 µg/ml and 0.115 nM
- EC50 CD4+ T-cell proliferation, donor 1 [9]: 0.009 µg/ml and 0.057 nM
- EC50 CD4+ T-cell proliferation, donor 2 [9]: 0.024 µg/ml and 0.159 nM
- EC50 CD4+ T-cell proliferation, donor 3 [9]: 0.012 µg/ml and 0.084 nM
- EC50 CD4+ T-cell proliferation, donor 4 [9]: 0.007 µg/ml and 0.048 nM
- EC50 CD4+ T-cell proliferation, donor 5 [9]: 0.008 µg/ml and 0.053 nM
- EC50 CD4+ T-cell proliferation, donor 6 [9]: 0.006 µg/ml and 0.038 nM
- EC50 CD4+ T-cell proliferation, donor 7 [9]: 0.019 µg/ml and 0.129 nM
- EC50 CD4+ T-cell proliferation, donor 8 [9]: 0.016 µg/ml and 0.107 nM
- EC50 CD4+ T-cell proliferation, donor 9 [9]: 0.007 µg/ml and 0.048 nM
- EC50 CD4+ T-cell proliferation, donor 10 [9]: 0.017 µg/ml and 0.111 nM
- EC50 CD4+ T-cell proliferation, donor 11 [9]: 0.01 µg/ml and 0.067 nM
- EC50 CD4+ T-cell proliferation, donor 12 [9]: 0.009 µg/ml and 0.06 nM
- EC50 CD4+ T-cell proliferation, donor 13 [9]: 0.019 µg/ml and 0.125 nM
- EC50 CD4+ T-cell proliferation, donor 14 [9]: 0.008 µg/ml and 0.052 nM
- EC50 CD4+ T-cell proliferation, donor 15 [9]: 0.02 µg/ml and 0.132 nM
- EC50 CD4+ T-cell proliferation, donor 16 [9]: 0.008 µg/ml and 0.053 nM
- EC50 CD4+ T-cell proliferation, donor 17 [9]: 0.018 µg/ml and 0.119 nM
- EC50 CD8+ T-cell proliferation, donor 1 [9]: 0.028 µg/ml and 0.19 nM
- EC50 CD8+ T-cell proliferation, donor 2 [9]: 0.029 µg/ml and 0.195 nM
- EC50 CD8+ T-cell proliferation, donor 3 [9]: 0.013 µg/ml and 0.087 nM
- EC50 CD8+ T-cell proliferation, donor 4 [9]: 0.007 µg/ml and 0.048 nM
- EC50 CD8+ T-cell proliferation, donor 5 [9]: 0.009 µg/ml and 0.058 nM
- EC50 CD8+ T-cell proliferation, donor 6 [9]: 0.008 µg/ml and 0.051 nM
- EC50 CD8+ T-cell proliferation, donor 7 [9]: 0.041 µg/ml and 0.273 nM
- EC50 CD8+ T-cell proliferation, donor 8 [9]: 0.005 µg/ml and 0.033 nM
- EC50 CD8+ T-cell proliferation, donor 9 [9]: 0.008 µg/ml and 0.052 nM
- EC50 CD8+ T-cell proliferation, donor 10 [9]: 0.016 µg/ml and 0.109 nM
- EC50 CD8+ T-cell proliferation, donor 11 [9]: 0.014 µg/ml and 0.095 nM
- EC50 CD8+ T-cell proliferation, donor 12 [9]: 0.009 µg/ml and 0.058 nM
- EC50 CD8+ T-cell proliferation, donor 13 [9]: 0.052 µg/ml and 0.346 nM
- EC50 CD8+ T-cell proliferation, donor 14 [9]: 0.008 µg/ml and 0.054 nM
- EC50 CD8+ T-cell proliferation, donor 15 [9]: 0.018 µg/ml and 0.117 nM
- EC50 CD8+ T-cell proliferation, donor 16 [9]: 0.011 µg/ml and 0.074 nM
- EC50 CD8+ T-cell proliferation, donor 17 [9]: 0.017 µg/ml and 0.116 nM
- EC50 [10]: 0.0236 µg/mL
- fold change of EC50 in the presence of sOX40L against its absence [11]: ~3 fold
